Data on 9 substances can be found in paper PMC4931022, “Arginine demethylation is catalysed by a subset of JmjC histone lysine demethylases” (Nature Communications, 2016).

Common to all, as to type: biochemical
Assay [1] concerns the target T1, KDM4E (Homo sapiens, UniProt B2RXH2).
T1 construct: His6 (N); made in house; host or cells: Escherichia coli
T1 sequence (B2RXH2 1-337): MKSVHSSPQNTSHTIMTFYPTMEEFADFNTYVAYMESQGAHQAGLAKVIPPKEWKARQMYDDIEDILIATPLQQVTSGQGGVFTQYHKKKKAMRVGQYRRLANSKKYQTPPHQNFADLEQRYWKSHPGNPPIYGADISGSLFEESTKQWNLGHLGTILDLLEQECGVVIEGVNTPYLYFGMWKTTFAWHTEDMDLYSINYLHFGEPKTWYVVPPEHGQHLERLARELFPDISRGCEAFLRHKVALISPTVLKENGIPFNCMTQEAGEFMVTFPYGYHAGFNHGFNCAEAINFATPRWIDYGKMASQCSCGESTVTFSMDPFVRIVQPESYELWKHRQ
The assay can be described thus: MALDI MS activity assay, recombinant KDM4E catalytic domain. As to conditions: peptide 10 μM, 1 h, 37 °C, MALDI-TOF MS; for demethylation, in words: KDM4E catalytic domain 2 μM. How it is done:
(§1) MALDI MS activity assays. Recombinant proteins (2 μM) were incubated with peptides (10 μM, sequences are given in Supplementary Table 1) and cofactors/substrates for 1 h at 37 °C, unless otherwise specified. Reactions were quenched with 1:1 (v/v) methanol and analysed with MALDI MS. Assay conditions for each enzyme are given in Supplementary Table 2. Negative controls without enzyme were included.
(§2) Supplementary Table 2 Assay conditions with truncated recombinant protein. […]

Assay [2] has as its target T2, KDM5C (Homo sapiens, UniProt P41229).
T2 construct: KDM5C1–765 was produced as an N-terminally His6-tagged protein in Sf9 cells; His6 (N); made in house; host or cells: Sf9 cells (provided by the Structural Genomics Consortium)
T2 sequence (P41229 1-765): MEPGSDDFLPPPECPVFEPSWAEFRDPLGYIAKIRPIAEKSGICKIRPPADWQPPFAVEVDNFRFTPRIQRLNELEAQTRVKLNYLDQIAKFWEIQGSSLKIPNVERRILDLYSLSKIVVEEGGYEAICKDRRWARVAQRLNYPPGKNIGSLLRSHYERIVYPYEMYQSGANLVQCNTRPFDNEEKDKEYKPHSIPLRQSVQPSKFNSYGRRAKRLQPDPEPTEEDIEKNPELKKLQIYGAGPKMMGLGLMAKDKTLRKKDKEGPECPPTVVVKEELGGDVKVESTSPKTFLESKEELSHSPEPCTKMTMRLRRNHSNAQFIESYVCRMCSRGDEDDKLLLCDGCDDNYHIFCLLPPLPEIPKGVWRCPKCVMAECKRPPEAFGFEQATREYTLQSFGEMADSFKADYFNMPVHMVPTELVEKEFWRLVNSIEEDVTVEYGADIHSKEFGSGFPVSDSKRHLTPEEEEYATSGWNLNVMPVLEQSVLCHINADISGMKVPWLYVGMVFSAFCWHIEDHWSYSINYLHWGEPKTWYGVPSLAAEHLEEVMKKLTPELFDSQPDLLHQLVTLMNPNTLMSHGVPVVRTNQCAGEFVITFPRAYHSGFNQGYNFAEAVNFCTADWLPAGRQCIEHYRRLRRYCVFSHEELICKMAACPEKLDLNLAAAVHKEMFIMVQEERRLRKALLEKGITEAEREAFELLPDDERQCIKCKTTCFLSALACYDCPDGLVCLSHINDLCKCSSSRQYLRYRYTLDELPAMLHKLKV
The assay can be described thus: MALDI MS activity assay, recombinant KDM5C catalytic domain. As to conditions: peptide 10 μM, 1 h, 37 °C, MALDI-TOF MS; for demethylation, in words: KDM5C catalytic domain 2 μM. The procedure: as §1, §2

In the next assay the target is T3, KDM6B (Homo sapiens, UniProt O15054).
T3 construct: His6 (N); made in house; host or cells: Escherichia coli
The assay can be described thus: MALDI MS activity assay, recombinant KDM6B catalytic domain. To be noted: KDM6B 2 μM, peptide 10 μM, 1 h, 37 °C, 2OG 100 μM, ascorbate 100 μM, Fe(II) 10 μM, 50 mM HEPES pH 7.5, 150 mM NaCl; MALDI-TOF MS, −14 Da shift. The procedure: as §1
(§3) Supplementary Table 2 Assay conditions with truncated recombinant protein.
(§4) Supplementary Table 3 Assay conditions with full length Flag-tagged KDMs.

The target of assay [3] is T4, KDM3A (Homo sapiens, UniProt Q9Y4C1).
T4 construct: KDM3A515–1,317; His6 (N); made in house; host or cells: Sf9 cells
T4 sequence (Q9Y4C1 515-1317 limits assumed): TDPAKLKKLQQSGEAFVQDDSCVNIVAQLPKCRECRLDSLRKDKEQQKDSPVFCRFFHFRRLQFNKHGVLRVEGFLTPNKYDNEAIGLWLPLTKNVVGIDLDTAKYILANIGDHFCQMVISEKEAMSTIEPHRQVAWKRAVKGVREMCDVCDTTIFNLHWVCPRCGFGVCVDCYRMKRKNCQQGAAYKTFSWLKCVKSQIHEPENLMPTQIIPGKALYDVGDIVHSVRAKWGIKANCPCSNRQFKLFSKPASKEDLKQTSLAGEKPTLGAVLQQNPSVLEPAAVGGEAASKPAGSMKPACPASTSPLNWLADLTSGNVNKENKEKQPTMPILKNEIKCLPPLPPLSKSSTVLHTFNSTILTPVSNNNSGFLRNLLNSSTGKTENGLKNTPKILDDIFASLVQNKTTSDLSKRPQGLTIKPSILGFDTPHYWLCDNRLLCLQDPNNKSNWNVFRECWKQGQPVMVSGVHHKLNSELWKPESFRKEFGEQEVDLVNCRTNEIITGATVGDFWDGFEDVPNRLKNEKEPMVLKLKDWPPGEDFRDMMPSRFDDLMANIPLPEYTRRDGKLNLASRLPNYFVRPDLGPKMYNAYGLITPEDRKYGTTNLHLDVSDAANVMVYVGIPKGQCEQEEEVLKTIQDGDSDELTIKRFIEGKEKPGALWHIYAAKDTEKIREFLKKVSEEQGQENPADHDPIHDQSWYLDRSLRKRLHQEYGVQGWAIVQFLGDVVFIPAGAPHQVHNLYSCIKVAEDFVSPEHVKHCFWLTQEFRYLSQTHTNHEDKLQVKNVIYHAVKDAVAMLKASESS
The assay is described as follows: MALDI MS activity assay, recombinant KDM3A catalytic domain. To be noted: KDM3A 2 μM, peptide 10 μM, 1 h, 37 °C, 2OG 100 μM, ascorbate 100 μM, Fe(II) 50 μM, 50 mM HEPES pH 7.5; MALDI-TOF MS, −14 Da shift. The procedure: as §1, §3, §4

Assay [4] addresses T2, KDM5C. The assay can be described thus: Formaldehyde dehydrogenase-coupled demethylation assay, KDM5C. As to conditions: for kcat / Km: KDM5C catalytic domain, apparent, preliminary, 37 °C, mean±s.e.m., n=3; for kcat: FDH/NAD+-coupled assay; for Km: FDH/NAD+-coupled formaldehyde assay, 2OG 200 μM, Fe(II) 10 μM, ascorbate 100 μM; for kcat/KM: KDM5C, calculated from the average kcat and KM values, μM^−1 s^−1 for this quantity. How it is done:
(§5) Formaldehyde dehydrogenase-coupled assays. Preliminary kinetic parameters were determined by detection of the formaldehyde by-product of the demethylation reaction using a FDH (formaldehyde dehydrogenase-coupled)/NAD^+-coupled assay as previously described. Assays were carried out in buffer (enzyme-dependent) with the addition of Fe(II) ammonium sulfate (10 μM), sodium ascorbate (100 μM), 2OG (200 μM), NAD^+ (500 μM), enzyme (0.2–4 μM) and FDH enzyme (0.025 U per assay, Sigma-Aldrich; total volume 30 μl) and were conducted at 37 °C in clear-bottom black 384-well plates. […] The Km and Vmax values were calculated from the reaction rate during the linear phase of formaldehyde production, as determined by the slope of the fluorescence signal recorded.

In assay [5] the target is T4, KDM3A. The assay is described as follows: Formaldehyde dehydrogenase-coupled demethylation assay, KDM3A. As to conditions: for kcat / Km: KDM3A catalytic domain, apparent, preliminary, 37 °C, mean±s.e.m., n=3; for kcat: FDH/NAD+-coupled assay; for Km: FDH/NAD+-coupled formaldehyde assay, 2OG 200 μM, Fe(II) 10 μM, ascorbate 100 μM, fluorescence 355/460 nm; for kcat/KM: KDM3A, calculated from the average kcat and KM values, μM^−1 s^−1 for this quantity. How it is done:
as §5

In assay [6] the target is T1, KDM4E. The assay is described as follows: Formaldehyde dehydrogenase-coupled demethylation assay, KDM4E. As to conditions: for Km: FDH/NAD+-coupled formaldehyde assay, 2OG 200 μM, Fe(II) 10 μM, ascorbate 100 μM. The procedure:
as §5

Setting [7] is: KDM4E catalytic domain, apparent, preliminary, FDH/NAD+-coupled assay, 37 °C, mean±s.e.m., n=3.
Setting [8] is: KDM4E catalytic domain, apparent, preliminary, 37 °C, mean±s.e.m., n=3.
Where [9] appears, read: KDM4E, calculated from the average kcat and KM values, μM^−1 s^−1 for this quantity.

T3 sequence (O15054 1141-1590 limits assumed): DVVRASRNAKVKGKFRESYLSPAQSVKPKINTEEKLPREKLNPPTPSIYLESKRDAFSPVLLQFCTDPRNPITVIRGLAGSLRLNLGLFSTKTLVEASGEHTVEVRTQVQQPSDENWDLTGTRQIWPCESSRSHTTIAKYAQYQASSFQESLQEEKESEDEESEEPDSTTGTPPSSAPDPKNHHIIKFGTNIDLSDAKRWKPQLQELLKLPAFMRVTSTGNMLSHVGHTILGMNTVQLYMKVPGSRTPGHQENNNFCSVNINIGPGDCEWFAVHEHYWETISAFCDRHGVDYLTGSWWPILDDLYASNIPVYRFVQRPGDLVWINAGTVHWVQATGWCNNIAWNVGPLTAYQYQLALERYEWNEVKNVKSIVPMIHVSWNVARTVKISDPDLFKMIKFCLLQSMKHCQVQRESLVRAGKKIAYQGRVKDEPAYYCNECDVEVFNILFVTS

“A-Kme3-TKQTARKSTGGKA [H3R2Kme3, histone H3 peptide with trimethyllysine substituted for R2]”: the “demethylation, in words” value at KDM4E [1] is given as “not observed to be a KDM substrate”; at KDM4E [1] (listed as H3(1–15)R2Kme3), “no demethylation activity”; at KDM5C [2] it was “not observed to be a KDM substrate”; on KDM5C [2] (listed as H3(1–15)R2Kme3), “no demethylation activity”.
Consider “A-Rme-TKQTARKSTGGKA [H3 (1–15) R2me, 'natural' histone H3 peptide monomethylated at R2]”, for which the “observed arginine demethylation activity” value is “−” at KDM6B; “+” on KDM4E [1] (KDM4E 2 μM, 2OG 200 μM, ascorbate 100 μM, Fe(II) 10 μM, 50 mM HEPES pH 7.5, −14 Da shift); “−” at KDM3A [3]; “+” on KDM5C [2] (KDM5C 2 μM, 2OG 100 μM, ascorbate 100 μM, Fe(II) 10 μM, 50 mM HEPES pH 7.5, −14 Da shift).
On to “ART-Kme3-QTARKSTGGKA [H3(1-15)K4me3, recognized histone H3 N-methylated-lysine peptide substrate for KDM5C, reference compound]”, for which, on KDM5C [4], the turnover number (kcat) was 67.1±10.3 × 10^−3 s^−1, the Km is 7.6 ± 2.9 µM and the kcat/KM is 8,800 × 10^−6.
Take “ART-Rme2a-QTARKSTGGKA [H3(1-15)K4Rme2a, histone H3 fragment with asymmetric dimethylarginine replacing methylated K4]”: on KDM5C [4], the kcat was 41.2±3.5 × 10^−3 s^−1, the Km was 29 ± 0.5 µM and the kcat/KM was 1,420.0 × 10^−6.
In the case of “ART-Rme2s-QTARKSTGGKA [H3(1-15)K4Rme2s, histone H3 fragment with symmetric dimethylarginine replacing methylated K4]”, on KDM5C [4], the kcat was 4.6±0.7 × 10^−3 s^−1, the Michaelis-Menten constant (Km) amounted to 21.1 ± 5.8 µM and the kcat/KM was 219.0 × 10^−6.
As for “ARTKQTAR-Rme2a-STGGKA (ARTKQTARRSTGGKA; asymmetric dimethylarginine at 9; C-terminal amide) [H3(1-15)K9Rme2a, histone H3 fragment with asymmetric dimethylarginine replacing methylated K9]”, the kcat is 5.0±0.6 × 10^−3 s^−1 in the assay with KDM3A [5] and 4.6±0.7 × 10^−3 s^−1 in the assay with KDM4E [6] (setting [7]). In addition, the Km is 11.6 ± 1.4 µM in the assay with KDM3A [5] and 66 ± 5 µM with KDM4E [6] (setting [8]). For the same substance, the results for the kcat/KM with KDM3A [5], in the assay with KDM4E [6] (KDM4E) and with KDM4E [6] (setting [9]) were 430.7 × 10^−6, 7.04e-05 µM⁻¹ s⁻¹ and 70.4 × 10^−6, respectively.
With “ARTKQTAR-Rme2s-STGGKA (ARTKQTARRSTGGKA; symmetric dimethylarginine at 9; C-terminal amide) [H3(1-15)K9Rme2s, histone H3 fragment with symmetric dimethylarginine replacing methylated K9]”, the values for the kcat with KDM3A [5] and with KDM4E [6] (setting [7]) were 3.0±0.3 × 10^−3 s^−1 and 8.7±0.3 × 10^−3 s^−1, respectively. Besides, the Michaelis-Menten constant (Km) in the assay with KDM3A [5] amounted to 23.7 ± 1.9 µM; with KDM4E [6] (setting [8]), 101 ± 11 µM. Also, the figures for the kcat/KM in the assay with KDM3A [5], in the assay with KDM4E [6] (KDM4E) and in the assay with KDM4E [6] (setting [9]) were 126.5 × 10^−6, 8.59e-05 µM⁻¹ s⁻¹ and 85.9 × 10^−6, respectively.
For “ARTKQTAR-Rme-STGGKA (ARTKQTARRSTGGKA; monomethylarginine at 9; C-terminal amide) [H3(1-15)K9Rme, histone H3 fragment with monomethylarginine replacing methylated K9]”, the turnover number (kcat) is 11.0±1.2 × 10^−3 s^−1 in the assay with KDM3A [5]; 2.7±0.2 × 10^−3 s^−1 in the assay with KDM4E [6] (setting [7]); 0.0027 ± 0.0002 s⁻¹ in the assay with KDM4E [6] (KDM4E, FDH-coupled assay). Also, the Michaelis constant (Km) was 12.1 ± 3.1 µM in the assay with KDM3A [5] and 169 ± 35.9 µM with KDM4E [6] (setting [8]). Besides, the kcat/KM in the assay with KDM3A [5] is listed as 907.6 × 10^−6; with KDM4E [6] (setting [9]), 15.9 × 10^−6.
With SG-Rme2a-GKGGKGLGKGGAK [H4R3me2a], the “demethylation, in words” value on KDM4E [1] and on KDM5C [2] was “low levels of demethylation” in each case.

What is called kcat is the number of substrate molecules converted per active site and unit of time at saturation. What is called Km is the concentration of substrate that gives half-maximal velocity. The term kcat/KM denotes the second-order rate constant that governs catalysis at low substrate concentration.
